Two molecules from publication PMC8338941, “Puf6 primes 60S pre-ribosome nuclear export at low temperature” can be followed below.

Data set [1] concerns the target T1, Puf6-PUM (Saccharomyces cerevisiae, UniProt Q04373 161-656). The data set can be described thus: fluorescence anisotropy; 27 C; buffer promoting tertiary contact; Anisotropy: 2.5 nM Cy5-RNA, 0.16 nM-20 uM protein, 27 C (stated for H68), buffer composition not in the material; FRET: 20 mM HEPES pH 7.4, 100 mM K+ (116 mM KCl in the supplement), 0-100 mM Mg2+. The conditions noted are these: protein: recombinant; (pET47-Puf6 (161-656)); label: Cy5 (sCy5); hairpin with GAAA tetraloop.

Data set [2] deals with T1, Puf6-PUM. The experiment in a line: fluorescence anisotropy; buffer promoting tertiary contact; Anisotropy: 2.5 nM Cy5-RNA, 0.16 nM-20 uM protein, 27 C (stated for H68), buffer composition not in the material; FRET: 20 mM HEPES pH 7.4, 100 mM K+ (116 mM KCl in the supplement), 0-100 mM Mg2+. The conditions noted are these: protein: recombinant; (pET47-Puf6 (161-656)); label: Cy5 (sCy5; sCy3 in the FRET construct); three hairpins, H22-H88 kissing loop, GAAA tetraloop docking.

T1 sequence (Q04373 161-656): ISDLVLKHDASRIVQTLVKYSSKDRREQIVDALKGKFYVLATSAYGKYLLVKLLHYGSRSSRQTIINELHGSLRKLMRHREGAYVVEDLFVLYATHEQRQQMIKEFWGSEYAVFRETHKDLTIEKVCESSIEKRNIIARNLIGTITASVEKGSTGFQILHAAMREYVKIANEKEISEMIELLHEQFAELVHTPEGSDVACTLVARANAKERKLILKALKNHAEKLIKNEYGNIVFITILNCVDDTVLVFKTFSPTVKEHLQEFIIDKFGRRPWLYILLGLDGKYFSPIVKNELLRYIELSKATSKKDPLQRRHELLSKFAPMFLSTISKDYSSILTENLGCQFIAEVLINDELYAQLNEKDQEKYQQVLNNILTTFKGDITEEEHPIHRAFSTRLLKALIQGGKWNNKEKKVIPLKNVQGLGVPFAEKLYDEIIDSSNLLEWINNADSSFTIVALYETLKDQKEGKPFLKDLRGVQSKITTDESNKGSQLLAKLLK

UGAAGAAAUUCA (structured_RNA) [H68 RNA]: in the data set with Puf6-PUM [1], the Kd was around 10 µM.

B1: KL-TLGAAA (H68-H88-H22 RNA), Cy5 (structured_RNA)
RNA: UGAAGAAAUUCAAAAAAAAAGCUCGGAAUUUGAGCAAAAAAAAAAAACGGUGGUAAAUUCCAUCG
In the case of B1, in the data set with Puf6-PUM [2], the Kd was around 0.125 µM.
